For experiment [1], the target named is ΔN-VAT (Thermoplasma acidophilum VAT with the regulatory N-terminal domain removed) (Thermoplasma acidophilum) (UniProt O05209). The experiment is described as follows: cryo-EM structure; purified ΔN-VAT at ~20 mg/mL, 50 mM HEPES pH 7.5, 100 mM NaCl, 5 mM ATPγS, 0.05% IGEPAL CA-630; six-fold symmetric stacked-ring class (~85% of particle images), C6 symmetry applied, 3.9 Å.

For another experiment, the target named is T1, ΔN-VAT (Thermoplasma acidophilum, UniProt O05209).
T1 construct: N-terminal regulatory domain removed (Methods: 181 residues deleted; b5 says first 182), NBD1 + NBD2; N-terminal His6 tag with TEV site, pProEx vector; homohexamer
In words: cryo-EM structure, […] Å. The format is binding. Particulars: 5 mM ATPγS, 50 mM HEPES pH 7.5, 100 mM NaCl; all twelve NBD1 and NBD2 nucleotide sites; six-fold symmetric stacked-ring state.

The stoichiometry N is the number of molecules, sites or subunits per partner or assembly.

T1 sequence (O05209 182-745, stated change not applied): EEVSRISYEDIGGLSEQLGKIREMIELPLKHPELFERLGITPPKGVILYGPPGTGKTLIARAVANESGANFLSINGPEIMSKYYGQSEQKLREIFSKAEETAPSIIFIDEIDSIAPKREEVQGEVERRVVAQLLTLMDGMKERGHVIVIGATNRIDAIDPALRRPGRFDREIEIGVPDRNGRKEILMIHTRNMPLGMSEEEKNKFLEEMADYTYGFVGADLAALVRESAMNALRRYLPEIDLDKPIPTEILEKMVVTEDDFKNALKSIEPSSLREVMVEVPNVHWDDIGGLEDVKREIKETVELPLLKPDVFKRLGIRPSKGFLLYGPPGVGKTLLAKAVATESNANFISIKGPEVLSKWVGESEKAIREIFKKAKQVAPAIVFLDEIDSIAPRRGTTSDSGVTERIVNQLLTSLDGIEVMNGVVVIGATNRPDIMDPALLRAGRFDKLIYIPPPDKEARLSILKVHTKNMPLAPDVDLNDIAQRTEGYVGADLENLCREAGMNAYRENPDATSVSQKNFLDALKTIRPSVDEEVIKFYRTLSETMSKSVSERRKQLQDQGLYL

On to “ΔN-VAT (Thermoplasma acidophilum VAT with the regulatory N-terminal domain removed) (from UniProt O05209 182-745) (enzyme)”, for which the stoichiometry N in experiment [1] is 6.

As to `Nc1ncnc2c1ncn2[C@@H]1O[C@H](COP(=O)(O)OP(=O)(O)OP(O)(O)=S)[C@@H](O)[C@H]1O` [ATPγS], the “cryo-EM structure, 3.9 Å” value at ΔN-VAT was “Density corresponding to ATPγS is visible in all twelve catalytic sites”.

The values are drawn from publication PMC5423775, “Structure of a AAA+ unfoldase in the process of unfolding substrate” (eLife, 2017).
